From article doi:10.1101/2020.10.14.337170
Like-named read-outs stand apart in the source and are kept apart here. One block for each substance: values may come before it.

Columns and labels:
[1] = molecular target: KKT4^2–114 (Trypanosoma brucei); assay: SEC-MALS
[2] = molecular target: KKT4^2–114 (Trypanosoma brucei); assay: SEC-MALS; remark: listed apart in the source
[3] = molecular target: KKT4^101–352 (Trypanosoma brucei); assay: SEC-MALS
[4] = molecular target: Fluorescently-labelled phosphopeptide derived from KKT8 (Trypanosoma brucei); assay: fluorescence polarisation
[5] = molecular target: Leishmania mexicana KKT4^184–284 (Leishmania mexicana); assay: crystal structure
[6] = molecular target: SNAP-6HIS-3FLAG-KKT4 (KKT4^2–645) (Trypanosoma brucei); assay: SEC-MALS
[7] = molecular target: Trypanosoma cruzi (Sylvio X10) KKT4^117–218 (Trypanosoma cruzi (Sylvio X10)); assay: crystal structure

Substance: KKT4^2–114 (domain or fragment)
stoichiometry N [1]: 4
stoichiometry N [2]: 3

Substance: KKT4^101–352 (domain or fragment)
stoichiometry N [3]: 2

Substance: KKT4^463–645 (KKT4 BRCT domain) (domain or fragment)
Kd [4]: 30 µM

Substance: Leishmania mexicana KKT4^184–284 (domain or fragment)
stoichiometry N [5]: 2

Next, values leading:

stoichiometry N [6]: 4
Substance: SNAP-6HIS-3FLAG-KKT4 (KKT4^2–645) (natural protein)

stoichiometry N [7]: 2
Substance: Trypanosoma cruzi (Sylvio X10) KKT4^117–218 (domain or fragment)
